Values quoted from earlier work as cited in PMC7955094.

Tests used:
His19 = His19 (UniProt position 19, ILSALHFMAWT); conditions: membrane-bound H27A BM2 tetramer
His37 = His37 (UniProt position 37, IIGILHLILWI); conditions: AM2 tetramer

Substance | pKa (His19) | pKa (His37)
Influenza B virus M2 protein (BM2) H27A mutant (Influenza B virus (strain of the quoted study not stated); H27A) | 5.6 | –
Influenza A virus M2 protein (AM2) proton channel (Influenza A virus (strain not stated)) | – | 5.9
